To fix the notation:
B1: IL4R-CHI-04 (antibody, V domains shown)
VH: DVQLQESGPGLVKPSQSLSLTCTVTGYSITSDYAWNWIRQFPGNKLEWMGYISYSGSSSYNPSLKSRISITRDTSKNQFFLQLNSVTTDDTATYYCAGGGLRRRGLFDYWGQGTTLTVSS
VL: QIVLSQSPAILSASPGEKVTMTCRATSSVTYMHWYQQKPGSSPKPWIYATSNLASGVPARFSGSGSGTSYSLTISRVEAEDTATYYCQQWSSIPLTFGAGTKLELK
B2: IL4R-CHI-07 (antibody, V domains shown)
VH: QVQLQQSGAELVKPGASVKLSCKASGYTFTEYTIHWVKQRSGQGLEWIGWFYPGRGSIKYNEKFKDKATLTADKSSSTVYMELSRLTSEDSAVYFCTRHEYRGSNYAMDYWGQGTSVTVSS
VL: DVLMTQTPLSLPVSLGDQASISCRSSQSIVHSSGNTYLQWYLQKPGQSPKLLIYKVSNRFSGVPDRFSGSGSGTDFTLKISRVEAEDLGVYYCFQGSHVPPTFGGGTKLEIK
B3: IL4R-CHI-17 (antibody, V domains shown)
VH: QAYLQQSGAELVRPGASVKMSCKASGYTFTSYNMHWAKQTPRQGLEWIGSIYPGNGDTSYNQKFKGKATLTVDKSSSTAYMQLSSLTSEDSAVYFCARGGRLRRGDWFAYWGQGTLVTVSA
VL: DIQMTQSPASLSASVGETVTITCRASENIYSYLIWYQQKQGKSPQLLVYDAKTLAEGVPSRFSGSGSGSQFSLKINSLQPEDFGTYYCQHHYGTPLTFGGGTKLELK
B4: IL4R-CHI-13 (antibody, V domains shown)
VH: EVQLQQSGPVLVKPGASVKMSCKASGYTFTDYYMNWVKQRHGKSLDWIGTINPYNGGTGYNQKFKGKATLTVDKSSSTAYMELNSLTSEDSAVYFCARSLLRRRGAMDYWGQGTSVTVSS
VL: DIVLTQSPASLVVSLGQRATISCRASKSVSTSGYGYIHWYRQKPGQPPKLLIYLVSNLESGVPARFSGSGSGTDFTLNIHPVEEEDAATYYCQHIRELYTFGGGTKLEIK
B5: IL4R-CHI-14 (antibody, V domains shown)
VH: EVMLVESGGGLVKPGGSLKLSCAASGFTFSSYAMSWVRQTPEKRLEWVAIISGGGDSTYYPDSVKGRFTISRDNAKNTLYLQMSSLRSEDTALYFCARLHYWYFDFWGTGTTVTVSS
VL: DIQMTQSSSSFSVSLGDRVTITCKASEDLYNRLAWYQQKPGNAPRLLISGATSLETGVPSRFSGSGSGRDYTLIITSLQTEDVATYYCQQYWRNPYTFGGGTKLEIK

The source of these data is patent EP4755920A1.

In this assay the target is Full-length cynoIL4Rα on monkey IL4Rα-FlpinCHO cells (cynomolgus monkey). As to the kind of experiment: flow cytometry on monkey IL4Rα-FlpinCHO cells.
Sequence of Full-length cynoIL4Rα on monkey IL4Rα-FlpinCHO cells (cynomolgus monkey) (A0A2K5 entry or part of it limits assumed): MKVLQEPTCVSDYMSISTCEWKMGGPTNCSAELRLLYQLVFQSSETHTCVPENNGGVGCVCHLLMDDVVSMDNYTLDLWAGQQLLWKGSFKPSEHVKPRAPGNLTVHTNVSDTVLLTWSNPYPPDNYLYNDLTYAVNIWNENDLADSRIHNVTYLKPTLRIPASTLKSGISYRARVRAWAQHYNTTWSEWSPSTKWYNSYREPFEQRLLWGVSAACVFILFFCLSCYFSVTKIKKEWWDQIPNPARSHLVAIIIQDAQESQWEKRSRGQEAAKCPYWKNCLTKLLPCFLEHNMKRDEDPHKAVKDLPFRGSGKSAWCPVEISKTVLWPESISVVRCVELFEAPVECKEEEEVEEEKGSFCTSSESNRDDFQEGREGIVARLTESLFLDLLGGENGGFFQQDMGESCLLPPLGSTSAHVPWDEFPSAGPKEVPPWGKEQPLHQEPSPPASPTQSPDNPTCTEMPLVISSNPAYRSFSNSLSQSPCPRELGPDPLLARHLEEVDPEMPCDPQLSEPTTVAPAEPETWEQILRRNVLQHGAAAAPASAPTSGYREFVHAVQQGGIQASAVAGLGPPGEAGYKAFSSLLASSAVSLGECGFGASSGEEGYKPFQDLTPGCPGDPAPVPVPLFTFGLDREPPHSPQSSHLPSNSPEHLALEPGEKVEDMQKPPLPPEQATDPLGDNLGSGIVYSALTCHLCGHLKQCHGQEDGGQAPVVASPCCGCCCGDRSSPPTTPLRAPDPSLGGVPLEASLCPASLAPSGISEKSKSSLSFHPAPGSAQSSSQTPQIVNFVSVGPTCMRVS
B1 showed an Emax of 82. In turn, B2 yielded an Emax of 58.

Molecule B3 showed an Emax of 68. Take B4: the Emax was 74. Then B5, with 97.
